# Measurements as given in the supplement of paper PMC7877785.
# ± gives the uncertainty stated by the source.
# Test: self-splicing fitness, log relative to wild type (ln ratio); higher = more splicing; Tetrahymena group I intron in knt gene, E. coli kanamycin selection, DiMSum; sequences stand for … in CUCUCU…GGAGGGAAAAGUUAUCAGGCAUGCACCUGGUAGCUAGUCUUUAAACCAAUAGAUUGCAUCGGUUUAAAAGGCAAGACCGUCAAAUUGCGGGAAAGGGGUCAACAGCCGUUCAGUACCAAGUCUCAGGGGAAACUUUGAGAUGGCCUUGCAAAGGGUAUGGUAAUAAGCUGACGGACAUGGUCCUAACCACGCAGCCAAGUCCUAAGUCAACAGAUCUUCUGUUGAUAUGGAUGCAGUUCACAGACUAAAUGUCGGUCGGGGAAGAUGUAUUCUUCUCAUAAGAUAUAGUCGGACCUCUCCUUAAUGGGAGCUAGCGGAUGAAGUGAUGCAACACUGGAGCCGCUGGGAACUAAUUUGUAUGCGAAAGUAUAUUGAUUAGUUUUGGAGUACUCGUGGUCG
# Outline: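 Pooled colonies went to amplicon sequencing on an Illumina HiSeq 2500 after six replicate transformations. The plates were LB agar with 100 μg/mL carbenicillin, 50 μM IPTG and 0.2% rhamnose, with or without 25 μg/mL kanamycin, incubated overnight at 37°C or 30°C. The E. coli BL21(DE3) library had all eight P1ex-region intron nucleotides randomised, the intron placed in the knt kanamycin-resistance gene on pET-22b(+). DiMSum fitness is the error-weighted combination of replicate fold changes, kanamycin against none, normalised to wild type.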
Sequence,self-splicing fitness (ln) (30 °C),self-splicing fitness (ln) (37 °C)
ACUGAGCAAUAUUACGCACG,-2.17 ± 0.15,-1.11 ± 0.17
ACUGAGCAAUAUUACGCAGU,-2.36 ± 0.24,-1.35 ± 0.2
ACUGAGCAAUAUUACGCAUU,-2.71 ± 0.1,-1.29 ± 0.11
ACUGAGCAAUAUUACGCCCU,-1.87 ± 0.33,-1.05 ± 0.44
ACUGAGCAAUAUUACGCGCA,-3.04 ± 0.42,-1.66 ± 0.36
ACUGAGCAAUAUUACGGAGA,-3.46 ± 0.21,-3.08 ± 0.27
ACUGAGCAAUAUUACGGAUA,-3.08 ± 0.28,-1.77 ± 0.26
ACUGAGCAAUAUUACGGCAG,-1.75 ± 0.12,-0.311 ± 0.15
ACUGAGCAAUAUUACGGCCA,-2.43 ± 0.28,-2.07 ± 0.33
ACUGAGCAAUAUUACGGUAG,-3.12 ± 0.18,-1.03 ± 0.21
ACUGAGCAAUAUUACGGUCA,-3.09 ± 0.21,-1.51 ± 0.15
ACUGAGCAAUAUUACGGUUA,-2.56 ± 0.21,-1.9 ± 0.17
ACUGAGCAAUAUUACGUAAC,-4.25 ± 0.25,-3.36 ± 0.3
ACUGAGCAAUAUUACGUAAG,-2.02 ± 0.086,-0.834 ± 0.1
ACUGAGCAAUAUUACGUAGG,-2.14 ± 0.14,-1.27 ± 0.18
ACUGAGCAAUAUUACGUCAA,-3.09 ± 0.23,-2.31 ± 0.19
ACUGAGCAAUAUUACGUCGU,-2.87 ± 0.16,-1.96 ± 0.14
ACUGAGCAAUAUUACGUGCG,-3 ± 0.13,-1.28 ± 0.11
ACUUAGCAAUAUUACGAACA,-1.35 ± 0.2,-0.724 ± 0.19
ACUUAGCAAUAUUACGAAGG,-2.08 ± 0.12,-1.33 ± 0.17
ACUUAGCAAUAUUACGACGG,-0.755 ± 0.081,-0.0301 ± 0.11
ACUUAGCAAUAUUACGAGCU,-0.379 ± 0.099,-0.0037 ± 0.14
ACUUAGCAAUAUUACGAGUC,–,-3.01 ± 0.35
ACUUAGCAAUAUUACGCAAG,-2.24 ± 0.17,-1.32 ± 0.14

Sequence,self-splicing fitness (ln) (30 °C),self-splicing fitness (ln) (37 °C)
ACUUAGCAAUAUUACGCAUA,-1.74 ± 0.12,-1.42 ± 0.14
ACUUAGCAAUAUUACGCCUG,-1.12 ± 0.18,-0.484 ± 0.19
ACUUAGCAAUAUUACGCUUA,-1.26 ± 0.15,-1.75 ± 0.21
ACUUAGCAAUAUUACGCUUC,-2.32 ± 0.19,-2.18 ± 0.45
ACUUAGCAAUAUUACGGAGG,-2.19 ± 0.13,-1.48 ± 0.16
ACUUAGCAAUAUUACGGGGG,-2.98 ± 0.23,-1.96 ± 0.21
ACUUAGCAAUAUUACGUAAC,-2.9 ± 0.12,-2.43 ± 0.2
ACUUAGCAAUAUUACGUACC,-2.17 ± 0.23,-1.06 ± 0.23
ACUUAGCAAUAUUACGUCUC,-2.31 ± 0.25,-3.34 ± 0.32
ACUUAGCAAUAUUACGUUAC,-3.55 ± 0.26,-2.55 ± 0.38
ACUUAGCAAUAUUACGUUAU,-3.66 ± 0.22,-1.31 ± 0.16
AGAAAGCAAUAUUACGAAAG,-3.93 ± 0.21,-1.94 ± 0.18
AGAAAGCAAUAUUACGAGAU,-3.45 ± 0.24,-1.99 ± 0.2
AGAAAGCAAUAUUACGAGGA,-3.15 ± 0.15,-2.71 ± 0.16
AGAAAGCAAUAUUACGAGUC,-3.82 ± 0.33,-1.57 ± 0.18
AGAAAGCAAUAUUACGCAAG,-1.66 ± 0.13,-1.32 ± 0.18
AGAAAGCAAUAUUACGCCGU,-0.929 ± 0.11,-0.341 ± 0.13
AGAAAGCAAUAUUACGCUGU,-2.34 ± 0.14,-1.98 ± 0.16
AGAAAGCAAUAUUACGGCAU,-0.587 ± 0.051,-0.525 ± 0.064
AGAAAGCAAUAUUACGGGUC,-3.05 ± 0.21,-3.35 ± 0.31
AGAAAGCAAUAUUACGGGUU,-2.85 ± 0.15,-1.61 ± 0.12
AGAAAGCAAUAUUACGGUCG,-0.278 ± 0.07,-0.0273 ± 0.092
AGAAAGCAAUAUUACGUACU,-0.412 ± 0.096,0.261 ± 0.11
AGAAAGCAAUAUUACGUCCC,-0.156 ± 0.18,0.119 ± 0.25

Sequence,self-splicing fitness (ln) (30 °C),self-splicing fitness (ln) (37 °C)
AGAAAGCAAUAUUACGUCUA,-0.728 ± 0.091,-0.00176 ± 0.092
AGAAAGCAAUAUUACGUCUU,-1.77 ± 0.09,-0.678 ± 0.088
AGAAAGCAAUAUUACGUGGA,-2.47 ± 0.12,-2.28 ± 0.13
AGAAAGCAAUAUUACGUUCA,-0.142 ± 0.084,0.14 ± 0.12
AGAAAGCAAUAUUACGUUUU,-3.84 ± 0.17,-3.06 ± 0.2
AGACAGCAAUAUUACGACCU,0.0744 ± 0.084,-0.545 ± 0.093
AGACAGCAAUAUUACGACGG,-2.19 ± 0.14,-1.86 ± 0.13
AGACAGCAAUAUUACGACUA,-0.888 ± 0.092,-0.383 ± 0.088
AGACAGCAAUAUUACGAGGC,-3.34 ± 0.23,-2.82 ± 0.3
AGACAGCAAUAUUACGCAGU,-3.96 ± 0.2,-3.04 ± 0.27
AGACAGCAAUAUUACGCCCA,-0.00321 ± 0.2,0.432 ± 0.28
AGACAGCAAUAUUACGCCCU,-0.687 ± 0.083,0.0722 ± 0.1
AGACAGCAAUAUUACGCCGG,-2.95 ± 0.18,-1.67 ± 0.16
AGACAGCAAUAUUACGCGCG,-0.587 ± 0.074,0.222 ± 0.096
AGACAGCAAUAUUACGCUAU,-3.31 ± 0.18,-0.948 ± 0.12
AGACAGCAAUAUUACGCUGC,-3.72 ± 0.2,-2.64 ± 0.24
AGACAGCAAUAUUACGCUGG,-3.98 ± 0.31,-3.5 ± 0.3
AGACAGCAAUAUUACGGAAU,-3.47 ± 0.14,-2.29 ± 0.17
AGACAGCAAUAUUACGGACC,-0.551 ± 0.075,-0.201 ± 0.086
AGACAGCAAUAUUACGGAGG,-3.35 ± 0.18,-2.48 ± 0.23
AGACAGCAAUAUUACGGCAA,-1.37 ± 0.064,-0.634 ± 0.079
AGACAGCAAUAUUACGGCCC,-0.119 ± 0.2,-0.253 ± 0.25
AGACAGCAAUAUUACGGCGU,-0.937 ± 0.057,-0.314 ± 0.065
AGACAGCAAUAUUACGGGAA,-2.68 ± 0.18,-1.38 ± 0.14

Sequence,self-splicing fitness (ln) (30 °C),self-splicing fitness (ln) (37 °C)
AGACAGCAAUAUUACGGGGU,-3.82 ± 0.17,-2.25 ± 0.15
AGACAGCAAUAUUACGGUUG,-1.85 ± 0.088,-1.87 ± 0.13
AGACAGCAAUAUUACGUUAC,-3.81 ± 0.19,-1.34 ± 0.17
AGACAGCAAUAUUACGUUUG,-3.34 ± 0.11,-1.22 ± 0.086
AGAGAGCAAUAUUACGAACU,-1.81 ± 0.2,-1.57 ± 0.2
AGAGAGCAAUAUUACGACUA,-2.42 ± 0.44,–
AGAGAGCAAUAUUACGAGAG,–,-2.3 ± 0.44
AGAGAGCAAUAUUACGGCCU,-0.408 ± 0.3,-2.58 ± 0.5
AGAGAGCAAUAUUACGGCGU,-2.48 ± 0.19,-2.7 ± 0.25
AGAGAGCAAUAUUACGGUCC,-2.21 ± 0.3,-0.974 ± 0.46
AGAGAGCAAUAUUACGGUCU,-3.2 ± 0.15,-2.71 ± 0.29
AGAGAGCAAUAUUACGGUGU,-3.59 ± 0.25,-2.97 ± 0.22
AGAGAGCAAUAUUACGUAUG,-4.21 ± 0.24,-3.33 ± 0.27
AGAGAGCAAUAUUACGUCGU,-3.77 ± 0.32,-1.78 ± 0.22
AGAGAGCAAUAUUACGUGUU,-3.21 ± 0.18,-3.64 ± 0.36
AGAGAGCAAUAUUACGUUUC,-2.27 ± 0.21,-1.41 ± 0.23
AGAUAGCAAUAUUACGAAUC,-1.46 ± 0.18,-1.06 ± 0.24
AGAUAGCAAUAUUACGACGC,-0.572 ± 0.16,0.997 ± 0.22
AGAUAGCAAUAUUACGACGG,-2.09 ± 0.2,-1.55 ± 0.25
AGAUAGCAAUAUUACGAGUG,-2.72 ± 0.15,-1.22 ± 0.14
AGAUAGCAAUAUUACGAUAA,-2.02 ± 0.11,-1.16 ± 0.11
AGAUAGCAAUAUUACGAUAG,-2.88 ± 0.21,-2.31 ± 0.18
AGAUAGCAAUAUUACGAUGU,-0.932 ± 0.079,-0.112 ± 0.086
AGAUAGCAAUAUUACGCACC,0.321 ± 0.21,0.267 ± 0.34
